The text below walks through data of patent US12295987B2, “Method of using a GIP/GLP1 co-agonist for diabetes” (Eli Lilly and Company, priority 2018, dated 2025).

The target in the test is T1, human gastric inhibitory peptide receptor (hGIPR) (Homo sapiens, UniProt P48546).
T1 construct: expressed in transfected cells; host or cells: HEK293
T1 sequence (P48546 22-466): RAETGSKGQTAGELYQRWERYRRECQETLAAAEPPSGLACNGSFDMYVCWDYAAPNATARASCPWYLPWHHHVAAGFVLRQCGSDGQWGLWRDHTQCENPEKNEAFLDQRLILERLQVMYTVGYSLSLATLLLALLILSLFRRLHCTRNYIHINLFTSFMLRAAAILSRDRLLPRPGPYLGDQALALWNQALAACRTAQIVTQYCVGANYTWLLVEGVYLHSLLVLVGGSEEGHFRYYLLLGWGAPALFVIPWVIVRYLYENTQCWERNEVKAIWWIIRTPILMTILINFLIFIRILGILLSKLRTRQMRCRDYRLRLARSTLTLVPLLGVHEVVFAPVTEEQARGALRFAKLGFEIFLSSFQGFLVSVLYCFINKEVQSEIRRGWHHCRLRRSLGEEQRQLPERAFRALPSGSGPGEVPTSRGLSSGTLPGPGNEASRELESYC
Briefly: cAMP pharmacological functional assay in presence of 0.1% casein, hGIPR. It is filed as cell-based. Particulars: ratio of hGIPR to hGLP1R cAMP EC50 ratios. The protocol:
Each receptor over-expressing cell line (20 μl) is treated with the test peptide in DMEM (Gibco Cat #31053) supplemented with 0.1% Casein (Sigma Cat #C4765), 250 μM IBMX, 1× GlutaMAX™ (Gibco Cat #35050), and 20 mM HEPES (HyClone Cat #SH30237.01) in a 20 μl assay volume. […] EC50 is the concentration of compound causing half-maximal simulation in a dose response curve. A relative EC50 value is derived by non-linear regression analysis using the percent maximal response vs. the concentration of peptide added, fitted to a four-parameter logistic equation.
Intracellular cAMP levels are determined by extrapolation using a standard curve. Dose response curves of compounds are plotted as the percentage of stimulation normalized to minimum (buffer only) and maximum (maximum concentration of each control ligand) values and analyzed using a four parameter non-linear regression fit with a variable slope (Genedata Screener 13). EC50 is the concentration of compound causing half-maximal simulation in a dose response curve.
EC50 is the concentration of compound causing half-maximal simulation in a dose response curve.
As for “Y-Aib-Aad-GTFTSDYSILLDKK((2-[2-(2-Amino-ethoxy)-ethoxy]-acetyl)2-(γGlu)-CO—(CH2)18—CO2H)AQ-Aib-AFIEYLIEGGPSSGAPPPS-NH2 (YXXGTFTSDYSILLDKKAQXAFIEYLIEGGPSSGAPPPS; Aib, Aad, lipidated Lys, C-terminal amide; (2)..(2) Xaa at position 2 is Aib; (3)..(3) Xaa at position 3 is Aad; MOD_RES (17)..(17) Lys at position 17 is chemically modified by conjugation of the epsilon-amino group of the Lys side chain with (2-[2-(2-amino-ethoxy)-ethoxy]-acetyl)2-(gamma-Glu)-CO-(CH2)18- CO2H; (20)..(20) Xaa at position 20 is Aib; MOD_RES (39)..(39) Ser at position 39 is amidated) [Peptide 89]”, the “[hGIPR/hGLP1R] EC50 Ratio” value was found to be 8.97.

Take “Y-Aib-EGT-αMeF(2F)-TSD-3Pal-SI-αMeL-LDEK((2-[2-(2-Amino-ethoxy)-ethoxy]-acetyl)2-(γGlu)-CO—(CH2)18—CO2H)AQ-Aib-EFIEYLIEGGPSSGAPPPS-NH2 (YXEGTXTSDXSIXLDEKAQXEFIEYLIEGGPSSGAPPPS; Aib, αMeF(2F), 3Pal, αMeL; lipidated K; C-terminal amide; (2)..(2) Xaa at position 2 is Aib; (6)..(6) Xaa at position 6 is alpha-methyl-Phe(2F); (10)..(10) Xaa at position 10 is 3Pal; (13)..(13) Xaa at position 13 is alpha-methyl-Leu; MOD_RES (17)..(17) Lys at position 17 is chemically modified by conjugation of the epsilon-amino group of the Lys side chain with (2-[2-(2-amino-ethoxy)-ethoxy]-acetyl)2-(gamma-Glu)-CO-(CH2)18- CO2H; (20)..(20) Xaa at posit) [Peptide 157]”: the “[hGIPR/hGLP1R] EC50 Ratio” value is reported as 2.52.

In the case of “Y-Aib-EGT-αMeF(2F)-TSD-4Pal-SI-αMeL-LD-Dab-K((2-[2-(2-Amino-ethoxy)-ethoxy]-acetyl)2-(γGlu)-CO—(CH2)16—CO2H)AQ-Aib-EFI-(D-Glu)-YLIEGGPSSGAPPPS-NH2 (YXEGTXTSDXSIXLDXKAQXEFIXYLIEGGPSSGAPPPS; Aib, 4Pal, Dab, lipidated Lys, D-Glu, C-terminal amide; (2)..(2) Xaa at position 2 is Aib; (6)..(6) Xaa at position 6 is alpha-methyl-Phe(2F); (10)..(10) Xaa at position 10 is 4Pal; (13)..(13) Xaa at position 13 is alpha-methyl-Leu; (16)..(16) Xaa at position 16 is Dab; MOD_RES (17)..(17) Lys at position 17 is chemically modified by conjugation of the epsilon-amino group of the Lys side chain with (2-[2-(2-amino-ethoxy)-ethoxy]-acetyl)2-(gamma-Glu)-CO-) [Peptide 233]”, the “[hGIPR/hGLP1R] EC50 Ratio” value was determined as 9.25.

Turning to “Y-Aib-EGT-αMeF(2F)-TSD-4Pal-SI-αMeL-LD-Orn-K((2-[2-(2-Amino-ethoxy)-ethoxy]-acetyl)2-(γGlu)-CO—(CH2)16—CO2H)AQ-Aib-EFI-(D-Glu)-αMeY-LIEGG-NH2 (YXEGTXTSDXSIXLDXKAQXEFIXXLIEGG; Aib, αMeF(2F), 4Pal, αMeL, Orn, αMeY, D-Glu; C18 diacid lipidation; amide; (2)..(2) Xaa at position 2 is Aib; (6)..(6) Xaa at position 6 is alpha-methyl-Phe(2F); (10)..(10) Xaa at position 10 is 4Pal; (13)..(13) Xaa at position 13 is alpha-methyl-Leu; (16)..(16) Xaa at position 13 is Orn; MOD_RES (17)..(17) Lys at position 17 is chemically modified by conjugation of the epsilon-amino group of the Lys side chain with (2-[2-(2-amino-ethoxy)-ethoxy]-acetyl)2-(gamma-Glu)-CO-) [Peptide 265]”, the “[hGIPR/hGLP1R] EC50 Ratio” value amounted to 2.99.

Regarding “Y-Aib-EGT-αMeF(2F)-TSD-4Pal-SI-αMeL-LD-Orn-K((2-[2-(2-Amino-ethoxy)-ethoxy]-acetyl)2-(γGlu)-CO—(CH2)16—CO2H)AQ-Aib-EFI-(D-Glu)-αMeY-LIEGGPSSG-NH2 (YXEGTXTSDXSIXLDXKAQXEFIXXLIEGGPSSG; Aib, αMeF(2F), 4Pal, αMeL, Orn, αMeY, D-Glu; C18 diacid lipidation; amide; (2)..(2) Xaa at position 2 is Aib; (6)..(6) Xaa at position 6 is alpha-methyl-Phe(2F); (10)..(10) Xaa at position 10 is 4Pal; (13)..(13) Xaa at position 13 is alpha-methyl-Leu; (16)..(16) Xaa at position 16 is Orn; MOD_RES (17)..(17) Lys at position 17 is chemically modified by conjugation of the epsilon-amino group of the Lys side chain with (2-[2-(2-amino-ethoxy)-ethoxy]-acetyl)2-(gamma-Glu)-CO-) [Peptide 264]”, the “[hGIPR/hGLP1R] EC50 Ratio” value was 2.63.

For the substance “Y-Aib-EGT-αMeF(2F)-TSD-4Pal-SI-αMeL-LD-Orn-K((2-[2-(2-Amino-ethoxy)-ethoxy]-acetyl)2-(γGlu)-CO—(CH2)16—CO2H)AQ-Aib-EFI-(D-Glu)-αMeY-LIEGGPSSGAPPPS-NH2 (YXEGTXTSDXSIXLDXKAQXEFIXXLIEGGPSSGAPPPS; Aib, 4Pal, Orn, αMe residues, lipidated Lys, D-Glu, amide; (2)..(2) Xaa at position 2 is Aib; (6)..(6) Xaa at position 6 is alpha-MeF(2F); (10)..(10) Xaa at position 10 is 4Pal; (13)..(13) Xaa at position 13 is alpha-MeL; (16)..(16) Xaa at position 16 is Orn; MOD_RES (17)..(17) K at position 17 is chemically modified by conjugation of the epsilon-amino group of the K side chain with (2-[2-(2-amino-ethoxy)-ethoxy]-acetyl)2-(gamma-Glu)-CO-(CH2)16- CO2H; (20) [Peptide 4]”, the “[hGIPR/hGLP1R] EC50 Ratio” value came out at 4.22.

For the substance “Y-Aib-EGT-αMeF(2F)-TSD-4Pal-SI-αMeL-LD-Orn-K((2-[2-(2-Amino-ethoxy)-ethoxy]-acetyl)2-(γGlu)-CO—(CH2)16—CO2H)AQ-Aib-TFI-(D-Glu)-αMeY-LIEGGPSSGAPPPS-NH2 (YXEGTXTSDXSIXLDXKAQXTFIXXLIEGGPSSGAPPPS; Aib, 4Pal, Orn, αMe residues, lipidated Lys, D-Glu, amide; (2)..(2) Xaa at position 2 is Aib; (6)..(6) Xaa at position 6 is alpha-methyl-Phe(2F); (10)..(10) Xaa at position 10 is 4Pal; (13)..(13) Xaa at position 13 is alpha-methyl-Leu; (16)..(16) Xaa at position 16 is Orn; MOD_RES (17)..(17) Lys at position 17 is chemically modified by conjugation of the epsilon-amino group of the Lys side chain with (2-[2-(2-amino-ethoxy)-ethoxy]-acetyl)2-(gamma-Glu)-CO-) [Peptide 239]”, the “[hGIPR/hGLP1R] EC50 Ratio” value is given as 5.34.
